The values that follow come from patent publication US20120021995A1 (published 2012).

Residue numbers refer to the chain shown, from its start.

B1: 119p83P1A3 (designed binder)
chain: ALQTVCLKGTKVHMKCFLAFTQTKTFHEASEDCISRGGTLSTPQTGSENDALYEYLRQSVGNEAEIWLGLNGWLEGVGWVDMTGARIAYKNWVAKDHEQPDGGWPFSNENCAVLSGAANGKWFDKRCRDQLPYICQFGIV
notes: on phage
B2: 119p83P1A12 (designed binder)
chain: B1 chain with V93Q, A94P, K95G, D96L, H97W, E98R
notes: on phage
B3: 119p94P1D4 (designed binder)
chain: B1 chain with V93A, K95F, D96P, H97V
notes: on phage
B4: 119p83P1H3 (designed binder)
chain: B1 chain with V93S, A94E, K95D, D96R, H97P, E98G
notes: on phage
B5: 119p94P1G1 (designed binder)
chain: B1 chain with V93G, A94E, K95V, D96I, H97A, E98P
notes: on phage
B6: 119p94P1A4 (designed binder)
chain: B1 chain with V93F, K95E, D96F, H97F, E98L
notes: on phage
B7: 119p83P1H7 (designed binder)
chain: B1 chain with A94N, K95H, D96G, H97V, E98G
notes: on phage
B8: 119p94P1E7 (designed binder)
chain: B1 chain with V93I, A94W, K95S, D96R, H97I
notes: on phage
B9: 119p83P1H12 (designed binder)
chain: B1 chain with V93G, A94T, K95H, D96I, H97S, E98S
notes: on phage
B10: 119p94P1E10 (designed binder)
chain: B1 chain with V93R, A94V, K95P, D96S, H97L, E98R
notes: on phage
B11: 119p83P1A7′ (designed binder)
chain: B1 chain with V93Y, A94S, K95W, D96P, H97K, E98L
notes: on phage
B12: 119p94P1H10 (designed binder)
chain: B1 chain with V93S, A94T, K95A, D96Q, H97N, E98G
notes: on phage
B13: 119p83P1A9 (designed binder)
chain: B1 chain with A94Y, K95R, D96P, H97G, E98M
notes: on phage
B14: 119p83P1C9 (designed binder)
chain: B1 chain with V93G, A94G, K95E, D96V, H97L, E98L
notes: on phage
B15: 119p83P1A11 (designed binder)
chain: B1 chain with V93D, K95P, D96V, H97S, E98G
notes: on phage
B16: 119p83P1D11 (designed binder)
chain: B1 chain with V93Q, A94V, K95H, D96A, H97R, E98S
notes: on phage
B17: 119p83P1D10 (designed binder)
chain: B1 chain with V93G, A94R, K95R, D96R, H97N, E98L
notes: on phage
B18: 119p83P1H5 (designed binder)
chain: B1 chain with V93G, A94T, K95G, D96V, H97M, E98G
notes: on phage
B19: 119p83P1G3 (designed binder)
chain: B1 chain with V93Y, A94V, K95R, D96S, H97E, E98G
notes: on phage
B20: 119p94P1D2 (designed binder)
chain: B1 chain with V93L, A94D, K95V, D96T, H97K, E98T
notes: on phage
B21: 119p83P1C11 (designed binder)
chain: B1 chain with V93A, A94M, K95H, D96Y, H97Y, E98W
notes: on phage
B22: 119p83P1C12 (designed binder)
chain: B1 chain with V93N, A94S, K95N, D96V, H97V, E98L
notes: on phage
B23: 119p83P1F12 (designed binder)
chain: B1 chain with V93F, A94I, K95P, D96A, H97D, E98R
notes: on phage
B24: 119p94P1D11 (designed binder)
chain: B1 chain with V93G, A94S, K95T, D96G, H97E, E98K
notes: on phage
B25: 119p83P1G12 (designed binder)
chain: B1 chain with V93G, A94S, K95Y, D96G, H97P, E98F
notes: on phage
B26: 119p83P1H8 (designed binder)
chain: B1 chain with V93G, A94G, K95S, D96I, H97S, E98A
notes: on phage
B27: 119p94P1H3 (designed binder)
chain: B1 chain with V93S, A94L, K95S, D96W, E98P
notes: on phage
B28: 119p94P1B2 (designed binder)
chain: B1 chain with V93W, A94F, K95P, D96T, H97L, E98S
notes: on phage
B29: 119p94P1B8 (designed binder)
chain: B1 chain with V93W, A94S, K95Y, D96W, H97D, E98T
notes: on phage
B30: 119p94P1B6 (designed binder)
chain: B1 chain with V93H, A94P, K95Q, D96G, H97D, E98R
notes: on phage
B31: 71p88P1D9 (designed binder)
chain: EPPTQKPKKIVNAKKDVVNTKMFEELKSRLDTLAQEVALLKEQQALQTVCLKGTKVHMKCFLAFTQTKTFHEASEDCISRGGTLSTPQTGSENDALYEYLRQSVGNEAEIWLGLNGWVAGVGWVDMTGARIAYKNWETEITAQPDGGGGWRWENCAVLSGAANGKWFDKRCRDQLPYICQFGIV
B32: 71p88P1G11 (designed binder)
chain: B31 chain with V118M, G148P, W150L
B33: 014-42.3B8 (designed binder)
chain: B31 chain with V118L, A119E, G148E, G149H, R151G
notes: ATRIMER; also called 14p42P3B8
B34: 014-42.3D11 (designed binder)
chain: B31 chain with V118L, A119E, V121A, G148W, G149H
notes: ATRIMER
B35: 014-42.3D10 (designed binder)
chain: B31 chain with W117Y, V118L, A119E, V121Y, G148A, G149T, W150I, R151A
notes: ATRIMER
B36: 029-15.B3D (designed binder)
chain: EPPTQKPKKIVNAKKDVVNTKMFEELKSRLDTLAQEVALLKEQQALQTVCLKGTKVHMKCFLAFTQTKTFHEASEDCISRGGTLSTPQTGSENDALYEYLRQSVGNEAEIWLGLNELRTDGLWVDMTGARIAYKNWETEITAQPDGGVMRRSENCAVLSGAANGKWFDKRCRDQLPYICQFGIV
notes: ATRIMER; also called 9b3d
B37: 029-15.B9F (designed binder)
chain: B31 chain with G116K, W117R, A119W, G120Y, V121R, G148M, G149R, W150R, W152R
notes: ATRIMER; also called 2a1a

In one assay the target is T1, recombinant human TRAIL R1 (DR4)/Fc chimera (human, UniProt O00220 24-239).
T1 construct: bought (R&D Systems); not shown: Fc of the bought chimera (R&D Systems)
T1 sequence: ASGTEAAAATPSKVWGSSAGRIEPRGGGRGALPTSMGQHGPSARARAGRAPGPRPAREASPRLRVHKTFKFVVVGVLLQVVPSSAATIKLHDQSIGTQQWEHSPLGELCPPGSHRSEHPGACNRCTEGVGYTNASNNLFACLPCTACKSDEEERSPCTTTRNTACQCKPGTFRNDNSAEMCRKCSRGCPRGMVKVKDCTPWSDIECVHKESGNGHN
Nature of the assay: phage ELISA on DR4/Fc. For orientation: In an ELISA, binding on a coated surface is turned into a signal by an enzyme label.
Turning to B1, the binding result was “binds”.

Take B2: the binding result is reported as “binds”.

With B3, the binding result is “binds”.

On to B4, for which the binding result is “binds”.

Take B5: the binding result was “binds”.

On to B6, for which the binding result is “binds”.

For the molecule B7, the binding result was “binds”.

Turning to B8, the binding result is on record as “binds”.

With B9, the binding result was “binds”.

Turning to B10, the binding result is listed as “binds”.

Consider B11, for which the binding result is “binds”.

In the case of B12, the binding result is reported as “binds”.

In the case of B13, the binding result is listed as “binds”.

For the molecule B14, the binding result is reported as “binds”.

In the case of B15, the binding result was “binds”.

As for B16, the binding result is “binds”.

With B17, the binding result is “binds”.

In the case of B18, the binding result is recorded as “binds”.

B19: the binding result is reported as “binds”.

For B20, the binding result is given as “binds”.

For B21, the binding result is on record as “binds”.

For the molecule B22, the binding result was “binds”.

For B23, the binding result is listed as “binds”.

As to B24, the binding result is given as “binds”.

For the molecule B25, the binding result was “binds”.

B26: the binding result was “binds”.

Regarding B27, the binding result is given as “binds”.

B28: the binding result is “binds”.

With B29, the binding result is reported as “binds”.

B30: the binding result is given as “binds”.

A further assay concerns the target T2, DR4 (TRAIL-R1) on cancer cells (human, UniProt O00220 24-468).
T2 sequence: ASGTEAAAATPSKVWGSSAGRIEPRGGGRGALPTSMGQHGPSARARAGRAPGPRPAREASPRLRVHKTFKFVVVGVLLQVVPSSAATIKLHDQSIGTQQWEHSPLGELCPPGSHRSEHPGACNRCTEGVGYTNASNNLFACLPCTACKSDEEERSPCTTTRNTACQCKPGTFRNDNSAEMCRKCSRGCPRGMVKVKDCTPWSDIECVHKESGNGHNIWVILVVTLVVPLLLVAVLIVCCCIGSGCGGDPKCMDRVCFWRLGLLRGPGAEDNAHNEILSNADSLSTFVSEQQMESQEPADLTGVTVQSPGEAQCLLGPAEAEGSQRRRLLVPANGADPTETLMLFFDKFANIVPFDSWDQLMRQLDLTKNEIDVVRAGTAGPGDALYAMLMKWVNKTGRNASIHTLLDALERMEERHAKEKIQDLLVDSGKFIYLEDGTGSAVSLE
The assay is described as follows: cell-based or functional assay.
Turning to B31, the “Colo205 % killing (% of TRAIL activity)” value is -21%, the “H2122 % killing (% of TRAIL activity)” value is -3% and the “ST486 % killing (% of TRAIL activity)” value was determined as 28%.

For B32, the “Colo205 % killing (% of TRAIL activity)” value came out at 1%, the “H2122 % killing (% of TRAIL activity)” value was 4% and the “ST486 % killing (% of TRAIL activity)” value turned out to be 45%.

A further assay has as its target T1, recombinant human TRAIL R1 (DR4)/Fc …. Nature of the assay: SPR (Biacore), DR4-Fc captured by anti-Fc, ATRIMER analyte; apparent. The procedure:
(§1) Immobilization of an anti-human IgG Fc antibody (Biacore) to the CM5 chip (Biacore) was performed using standard amine coupling chemistry and this surface was used to capture recombinant human DR4 or DR5 receptor Fc fusion protein (R&D Systems). ATRIMER™ dilutions (1-500 nM) were injected over the DR4 and DR5 receptor surface at 30 μl/min and kinetic constants were derived from the sensorgram data using the Biaevaluation software (version 3.1, Biacore). Data collection was 3 minutes for the association and 5 minutes for dissociation. The anti-human IgG surface was regenerated with a 30 s pulse of 3 M magnesium chloride. All sensorgrams were double-referenced against an activated and blocked flow-cell as well as buffer injections.
(In SPR one partner is held on a chip, and binding of the other changes the refractive index at the surface.)
For the molecule B33, the Ka is 1.11e+08 M⁻¹, the Kd turned out to be 9.01 nM, the koff is 0.00101 s⁻¹ and the kon is 112000 M⁻¹ s⁻¹.

Take B34: the Ka was 2.53e+07 M⁻¹, the Kd was 39.5 nM, the koff was 0.000526 s⁻¹ and the kon is 13300 M⁻¹ s⁻¹.

In the case of B35, the Ka was 6.58e+06 M⁻¹, the Kd worked out at 152 nM, the koff worked out at 0.00185 s⁻¹ and the kon was found to be 12200 M⁻¹ s⁻¹.

The next assay concerns the target T3, recombinant human TRAIL R2 (DR5)/Fc chimera (human, UniProt O14763 54-182).
T3 construct: bought (R&D Systems); not shown: Fc of the bought chimera (R&D Systems)
Nature of the assay: SPR (Biacore), DR5-Fc captured by anti-Fc, ATRIMER analyte; apparent. Here is the method: as §1
For the molecule B36, the Ka came out at 1.11e+06 M⁻¹, the Kd is 899 nM, the dissociation rate constant (koff) was found to be 0.000104 s⁻¹ and the kon was determined as 116 M⁻¹ s⁻¹.

On to B37, for which the Ka stood at 2.38e+07 M⁻¹, the Kd worked out at 42.8 nM, the koff stood at 0.00184 s⁻¹ and the kon turned out to be 43800 M⁻¹ s⁻¹.

Broadly, the koff is the first-order rate constant of dissociation. Broadly, the kon is the second-order rate constant of association.
